Assay results taken from the supplement of paper PMC7877785.
± gives the uncertainty stated by the source.

Assay: self-splicing fitness, log relative to wild type (ln ratio); higher = more splicing; Tetrahymena group I intron in knt gene, E. coli kanamycin selection, DiMSum; sequences stand for … in CUCUCU…GGAGGGAAAAGUUAUCAGGCAUGCACCUGGUAGCUAGUCUUUAAACCAAUAGAUUGCAUCGGUUUAAAAGGCAAGACCGUCAAAUUGCGGGAAAGGGGUCAACAGCCGUUCAGUACCAAGUCUCAGGGGAAACUUUGAGAUGGCCUUGCAAAGGGUAUGGUAAUAAGCUGACGGACAUGGUCCUAACCACGCAGCCAAGUCCUAAGUCAACAGAUCUUCUGUUGAUAUGGAUGCAGUUCACAGACUAAAUGUCGGUCGGGGAAGAUGUAUUCUUCUCAUAAGAUAUAGUCGGACCUCUCCUUAAUGGGAGCUAGCGGAUGAAGUGAUGCAACACUGGAGCCGCUGGGAACUAAUUUGUAUGCGAAAGUAUAUUGAUUAGUUUUGGAGUACUCGUGGUCG
Method in brief: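 Colonies from six replicate transformations of E. coli BL21(DE3) were pooled and amplicon-sequenced on an Illumina HiSeq 2500. The library placed an intron with all eight P1ex-region nucleotides randomised inside the knt kanamycin-resistance gene on pET-22b(+), and cells grew overnight at 37°C or 30°C on LB agar with or without 25 μg/mL kanamycin (plus 100 μg/mL carbenicillin, 50 μM IPTG, 0.2% rhamnose). Fitness is the DiMSum error-weighted combination of wild-type-normalised replicate fold changes, kanamycin versus none.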

Sequence | self-splicing fitness (ln) (30 °C) | self-splicing fitness (ln) (37 °C)
CUCAAGCAAUAUUACGCAGU | -3.28 ± 0.18 | -2.32 ± 0.22
CUCAAGCAAUAUUACGCCGA | – | -1.29 ± 0.34
CUCAAGCAAUAUUACGCCUG | -4.22 ± 0.31 | -2.52 ± 0.24
CUCAAGCAAUAUUACGCGCC | -1.95 ± 0.32 | -1.15 ± 0.26
CUCAAGCAAUAUUACGCGCU | -2.36 ± 0.18 | -3.39 ± 0.32
CUCAAGCAAUAUUACGCGGG | -3.15 ± 0.25 | -2.42 ± 0.25
CUCAAGCAAUAUUACGCGUG | -3.3 ± 0.21 | -3.41 ± 0.43
CUCAAGCAAUAUUACGCUGA | -3.13 ± 0.18 | -2.41 ± 0.2
CUCAAGCAAUAUUACGGAAG | -1.84 ± 0.11 | -0.365 ± 0.12
CUCAAGCAAUAUUACGGAUU | -3.66 ± 0.17 | -2.81 ± 0.19
CUCAAGCAAUAUUACGGCCC | -2.42 ± 0.41 | –
CUCAAGCAAUAUUACGGGCG | -2.1 ± 0.086 | -1.34 ± 0.094
CUCAAGCAAUAUUACGUACG | -1.02 ± 0.065 | -0.705 ± 0.088
CUCAAGCAAUAUUACGUAGG | -0.955 ± 0.068 | -0.324 ± 0.11
CUCAAGCAAUAUUACGUAUG | -2.91 ± 0.099 | -2.61 ± 0.12
CUCAAGCAAUAUUACGUCCA | -2.66 ± 0.32 | -1.51 ± 0.27
CUCAAGCAAUAUUACGUUGC | -4.05 ± 0.29 | -2.39 ± 0.21

Sequence | self-splicing fitness (ln) (30 °C) | self-splicing fitness (ln) (37 °C)
CUCCAGCAAUAUUACGAAUA | -3.91 ± 0.47 | -2.54 ± 0.28
CUCCAGCAAUAUUACGACGA | -3.77 ± 0.26 | -2.5 ± 0.18
CUCCAGCAAUAUUACGCCCU | -3.46 ± 0.34 | -2 ± 0.26
CUCCAGCAAUAUUACGCGCA | -3.34 ± 0.31 | -2.56 ± 0.49
CUCCAGCAAUAUUACGCGCU | -4.33 ± 0.26 | -2.2 ± 0.2
CUCCAGCAAUAUUACGCUCA | -2.97 ± 0.17 | -2.31 ± 0.19
CUCCAGCAAUAUUACGCUGG | -1.92 ± 0.23 | –
CUCCAGCAAUAUUACGGACC | -3.65 ± 0.32 | -2.64 ± 0.44
CUCCAGCAAUAUUACGGAGA | -3.61 ± 0.27 | -2.21 ± 0.21
CUCCAGCAAUAUUACGGAGG | -3.04 ± 0.17 | -2.44 ± 0.13
CUCCAGCAAUAUUACGGCCG | -1.3 ± 0.1 | -0.777 ± 0.14
CUCCAGCAAUAUUACGGCGU | -3.61 ± 0.17 | -3.4 ± 0.23
CUCCAGCAAUAUUACGGCUA | -3.19 ± 0.26 | -2.27 ± 0.2
CUCCAGCAAUAUUACGGGCG | -1.74 ± 0.092 | -1.2 ± 0.13
CUCCAGCAAUAUUACGGGGA | -3.46 ± 0.18 | -0.678 ± 0.1
CUCCAGCAAUAUUACGGGGG | -3.56 ± 0.16 | -2.89 ± 0.19
CUCCAGCAAUAUUACGGGUC | -3.88 ± 0.24 | -2.2 ± 0.22
